Assay results: patent publication US20250052767A1 (BIOLEGEND, published 2025)
Changes are numbered by the printed parent chain.

B1: exemplary anti-CD28 antibody AB2 (antibody, V domains shown)
VH: QVQLQQPGSELMRPGASVKLSCKASGYTFTSYWMHWVKQRHGQGLEWIGNIYPGSGRTIYDEKFKSKATLTVDTSSSTAYMHLSSLTSEDSAVFYCTRSHYGSSFDAMDYWGQGTSVTVSS
VL: DIQVNQSPSSLSASLGDTITITCHASQNIYVWLNWYQQKPGNIPKLLIYKASNLHTGVPSRFSGSGSGTGFTLTISSLQPEDIATYYCQQGQSYPWTFGGGTKLEIK
notes: Mouse hybridoma monoclonal antibody; also called antibody 2; clone 2
B2: exemplary anti-CD28 antibody AB3 (antibody, V domains shown)
VH: KVQLQQSGAGLVKPGASVKLSCKTSGYTFSDYIINWVKQRSGQGLEWIGWFYPGSGSINYNEKFKDKATLTADKSSSTVYMDLSRLTSEDSAVYFCARREDRGGYDAFDYWGQGTTLTVSS
VL: DIQMTQSPASLSVSVGETVTITCRASENIYSNLAWYQQKQGKSPQLLVYAATKLADGVPSRFSGSGSGTQYSLRINSLQSEDFGSYYCQHFWGTPWTFGGGTKLEIK
notes: Mouse hybridoma monoclonal antibody; Conjugated to PE in the staining assays; also called antibody 3; clone 3
B3: exemplary anti-CD28 antibody AB1 (antibody, V domains shown)
VH: QVHLQQSATELARPGASVKMSCKASGYTFTSYTMHWVKQRPGQGLEWIGYIDPGSGYSEFNHKFKDKSTLTADKSSSTAYMQLISLTSEDSAVYYCARRQDNSGYDSFDYWGQGTTLTVSS
VL: B2 VL with A25T, K53N, P59S, T69I, R74K, T94I
notes: Mouse hybridoma monoclonal antibody; also called antibody 1; clone 1
B4: exemplary anti-CD28 antibody AB4 (antibody, V domains shown)
VH: EVQLQQSGPELEKPGASVKMSCKASGYSFTDYNMNWVKQSNGKSLEWIGIIDPYYGATTYNQRFKGKATLTVDKSSSTAYMQLKSLTSEDSAVYYCARFGFYGAMDYWGQGISVTVSS
VL: B2 VL
notes: Mouse hybridoma monoclonal antibody; Conjugated to PE in the staining assays; also called antibody 4; clone 4
B5: exemplary anti-CD28 antibody AB6 (antibody, V domains shown)
VH: B2 VH
VL: B2 VL
notes: Mouse hybridoma monoclonal antibody; Conjugated to PE in the staining assays; also called antibody 6; clone 6
B6: exemplary anti-CD28 antibody AB7 (antibody, V domains shown)
VH: B2 VH with T24A
VL: B2 VL with A25T, S80P
notes: Mouse hybridoma monoclonal antibody; Conjugated to PE in the staining assays; also called antibody 7; clone 7
B7: exemplary anti-CD28 antibody AB5 (antibody, V domains shown)
VH: B4 VH
VL: DVVVTQTPLSLPVSFGDQVSISCRSSQSLANSFGNTYLSWYLHKPGQSPQLLIYGISNRFSGVPDRFSGSGSGTDFTLKISTIKPEDLGVYYCLQGTHQPFTFGSGTTLELK
notes: Mouse hybridoma monoclonal antibody; Conjugated to PE in the staining assays; also called antibody 5; clone 5
B8: exemplary anti-CD28 antibody AB8 (antibody, V domains shown)
VH: EVKLVESGGGLVQPGGSLKLSCAASGFTFSSYTMSWVRQTPEKRLEWVAYISNGGGTTYYPDTVKGRFTISRDNAKNTLYLQMSSLKSEDTAVYYCARHRPYDYDVLDYWGQGTTLTVSS
VL: DIVMTQSQKFMSTSVGDRVSITCKASQIVGTDVAWYQQKPGQSPKILIFSASNRYTGVPDRFTGSGSGTDFTLTISNMQSEDLADYFCHQYSRYPYTFGGGTKLEIK
notes: Mouse hybridoma monoclonal antibody; Conjugated to PE in the staining assays; also called antibody 8; clone 8

Target: T1, human CD28 (human, UniProt P10747 19-220, On cells CD28 is a disulfide linked homodimer and a glycoprotein; one copy of the chain is given.)
Assay: cell-based or functional assay

T1 sequence (P10747 19-220 limits assumed): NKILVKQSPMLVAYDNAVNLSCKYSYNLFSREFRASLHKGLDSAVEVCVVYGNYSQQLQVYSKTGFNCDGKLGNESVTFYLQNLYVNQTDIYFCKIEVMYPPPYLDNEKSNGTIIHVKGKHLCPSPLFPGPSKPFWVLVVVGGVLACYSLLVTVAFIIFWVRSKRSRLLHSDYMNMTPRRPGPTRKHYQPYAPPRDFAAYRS

Division Index (with anti-CD3 UCHT1)	Expansion Index (with anti-CD3 UCHT1)	Percent Divided (CFSE T cell division, with plate-coated anti-CD3 UCHT1) [%]	Binder
0.99	4.56	44	B1
1.08	5.11	55.7	B2
0.8	4.03	42	B3
1.08	5.07	53.8	B4
1.32	6.04	65.8	B5
0.96	4.82	48	B6
1.17	5.39	60.5	B7
0.76	3.51	40	B8

Target: T1, human CD28
Assay: cell-based or functional assay
Remark: another data set of the same source

Division Index (no anti-CD3)	Expansion Index (no anti-CD3)	Percent Divided (CFSE T cell division, no anti-CD3) [%]	Binder
1.49	6.13	65.4	B1
0.0056	1.01	0.32	B2
0.0072	1.01	0.58	B3
0.0002	1	0.0091	B4
0.0047	1.01	0.33	B5
0.014	1.03	0.47	B6
0.0082	1.01	0.64	B7
0.62	2.85	30.7	B8

Target: T1, human CD28
Assay: flow cytometry, PE-conjugated antibody on un-fixed human peripheral blood cells
Experimental: (§1) Cells were left either un-fixed or were fixed with 4% PFA for 15 minutes and washed with PBS to remove PFA. Cells were then counted and adjusted in Cell Staining Buffer and stained with exemplary anti-CD28 antibodies conjugated to PE for 30 minutes in the dark. […] Data were acquired on a BD Canto II instrument, and analyzed by FlowJo.

S/N on un-fixed cells	Binder
89	B1
133	B2
89.2	B3
75.4	B4
128	B5
130	B6
94.5	B7
30.9	B8

Target: T1, human CD28
Assay: flow cytometry, PE-conjugated antibody on 4% PFA-fixed human peripheral blood cells
Experimental: as §1

S/N on fixed cells	Binder
50.1	B1
101	B2
61.6	B3
57.7	B4
101	B5
108	B6
63.3	B7
24.6	B8

Target: T1, human CD28
Assay: flow cytometry, PE-conjugated antibody on fresh human peripheral blood cells, CD3/CD28 gating
Text: Cells were lysed with RBC lysis buffer, washed, and resuspended in Fluorofix solution (containing 1% PFA). Data were acquired on a BD Canto II instrument, and analyzed by FlowJo. […] A histogram was generated of each cell population to quantify median fluorescence intensity (MFI), and the MFI of each exemplary antibody and respective control was used to calculate the signal to noise (S:N) ratio (Table E2).

% CD28+ population [%]	MFI CD28+ population	S/N Ratio	Binder
64.2	13100	207	B1
65.7	15600	260	B2
64.8	12600	212	B3
64.9	11900	193	B4
66	15500	249	B5
64.8	16200	249	B6
64.7	12500	195	B7
65	5210	83.2	B8

Target: T1, human CD28
Assay: flow cytometry, Ba/F3-human CD28 cells pre-incubated with 70 ug antibody, then 1 ug biotinylated recombinant CD86 (competitor) + labelled streptavidin
Experimental: After 15 minutes of incubation and wash, cells were incubated with PE-conjugated streptavidin. Data were acquired on a BD Canto II, and analyzed using FlowJo software.
This value was subtracted from 100 to get a reduction percentage.

% Reduction (of CD86 binding) [%]	MFI (of CD86 binding after antibody pre-incubation)	Binder
91.4	714	B1
90.4	796	B2
91.1	736	B3
92.1	657	B4
91.1	741	B5
88.5	955	B6
91.9	668	B7
88.8	925	B8
